Experimental findings from patent US20200157212A1 (Pfizer, published 2020) are described below.

In assay [1] the target is T1, Human ROBO1 RSK mutant overexpressed on HEK293 cells (human, UniProt Q9Y6N7 26-1651).
T1 construct: K137R and R139K already in the entry; also called ROBO1-RSK cells
Kind of assay: flow cytometry, HEK293 cells. As to the method:
(§1) Using flow cytometry, improvement in the binding EC₅₀ to human ROBO2 relative to the parental 93H2 was evaluated. Starting at 6.7 nM, 11-point, 3-fold dilution series were made for each antibody and used to stain HEK293 overexpressing human ROBO2 as described above for the ROBO2 fold selectivity (Example 2). […] In addition to measuring improved binding to human ROBO2, it was important to ensure that high affinity binding to both cynomolgus monkey ROBO2 and rat ROBO2 was maintained. Using HEK293 cells overexpressing either cynomolgus monkey ROBO2 or rat ROBO2, the relative dose-dependent binding of 93H2, Abcs25 and Abcs35 was evaluated as described above. High affinity binding to both cynomolgus monkey and rat ROBO2 was maintained in Abcs25 and Abcs35 (Table 4). […] Briefly, Abcs35 was immobilized to 300 resonance units (RU) on a CM5 chip. Association of ROBO2 Ig1-Ig2-His (ROBO2) was measured over 5 minutes and dissociation was followed for a period of 10 minutes.
(§2) The binding profile of Abcs35-J compared to Abcs35 was determined for human ROBO2, orthologs from cynomolgus monkey and rat, human ROBO1 and specificity for the RSK epitope from ROBO2 but not KSR from ROBO1. Binding was assessed by flow cytometry as described in Examples 2 (homolog specificity), Example 3 (ortholog reactivity) and Example 5 (RSK vs KSR epitope specificity). […] Binding of the antibodies was detected using a secondary fluorochrome conjugated anti-human IgG F(ab′)₂ antibody and samples analyzed on a Fortessa cytometer (BD Biosciences).
For orientation: Flow cytometry measures light scatter and fluorescence of single cells or particles in a stream.

Assay [2] concerns the target T2, Cynomolgus monkey ROBO2 overexpressed on HEK293 cells (cynomolgus monkey, UniProt Q9HCK4 22-1378 (human entry)).
T2 chain: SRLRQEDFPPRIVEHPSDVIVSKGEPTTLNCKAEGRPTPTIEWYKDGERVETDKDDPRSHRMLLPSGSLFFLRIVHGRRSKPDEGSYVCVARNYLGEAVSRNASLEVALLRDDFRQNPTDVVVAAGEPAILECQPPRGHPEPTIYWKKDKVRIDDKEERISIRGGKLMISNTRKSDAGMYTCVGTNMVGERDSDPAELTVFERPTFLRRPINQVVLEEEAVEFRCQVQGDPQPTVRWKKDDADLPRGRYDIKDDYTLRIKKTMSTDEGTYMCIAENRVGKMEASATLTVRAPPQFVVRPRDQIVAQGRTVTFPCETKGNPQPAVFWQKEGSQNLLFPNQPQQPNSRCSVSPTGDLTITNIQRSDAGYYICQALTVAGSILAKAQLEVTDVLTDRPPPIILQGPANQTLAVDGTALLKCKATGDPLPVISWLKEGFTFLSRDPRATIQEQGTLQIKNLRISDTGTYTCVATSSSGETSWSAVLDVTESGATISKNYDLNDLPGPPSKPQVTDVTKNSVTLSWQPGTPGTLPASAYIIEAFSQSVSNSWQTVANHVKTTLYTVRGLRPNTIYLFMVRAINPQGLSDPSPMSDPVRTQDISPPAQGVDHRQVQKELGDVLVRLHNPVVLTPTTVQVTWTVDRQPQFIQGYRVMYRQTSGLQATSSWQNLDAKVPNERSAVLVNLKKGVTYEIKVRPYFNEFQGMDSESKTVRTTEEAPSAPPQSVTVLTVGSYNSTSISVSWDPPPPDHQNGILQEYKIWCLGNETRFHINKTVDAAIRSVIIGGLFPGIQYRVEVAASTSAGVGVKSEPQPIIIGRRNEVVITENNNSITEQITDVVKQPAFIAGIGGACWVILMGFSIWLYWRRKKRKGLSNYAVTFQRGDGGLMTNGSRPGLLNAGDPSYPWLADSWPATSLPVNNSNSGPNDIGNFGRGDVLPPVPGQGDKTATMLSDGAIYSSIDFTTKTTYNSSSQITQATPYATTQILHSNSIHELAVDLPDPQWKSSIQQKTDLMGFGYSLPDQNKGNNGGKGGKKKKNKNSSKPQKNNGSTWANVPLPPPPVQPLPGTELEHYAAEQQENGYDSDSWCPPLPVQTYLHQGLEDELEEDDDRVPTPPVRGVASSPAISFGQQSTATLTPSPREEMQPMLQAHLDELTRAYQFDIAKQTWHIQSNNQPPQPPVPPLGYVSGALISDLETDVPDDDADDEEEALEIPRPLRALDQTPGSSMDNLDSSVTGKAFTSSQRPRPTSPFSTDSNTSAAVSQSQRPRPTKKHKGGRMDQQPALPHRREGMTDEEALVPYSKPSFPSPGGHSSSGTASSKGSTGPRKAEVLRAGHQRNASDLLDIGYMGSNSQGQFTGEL
Description: flow cytometry, HEK293 cells. On the procedure:
as §1, §2

T1 sequence (Q9Y6N7 other isoform, or with tags, fused parts or gaps mutant limits assumed): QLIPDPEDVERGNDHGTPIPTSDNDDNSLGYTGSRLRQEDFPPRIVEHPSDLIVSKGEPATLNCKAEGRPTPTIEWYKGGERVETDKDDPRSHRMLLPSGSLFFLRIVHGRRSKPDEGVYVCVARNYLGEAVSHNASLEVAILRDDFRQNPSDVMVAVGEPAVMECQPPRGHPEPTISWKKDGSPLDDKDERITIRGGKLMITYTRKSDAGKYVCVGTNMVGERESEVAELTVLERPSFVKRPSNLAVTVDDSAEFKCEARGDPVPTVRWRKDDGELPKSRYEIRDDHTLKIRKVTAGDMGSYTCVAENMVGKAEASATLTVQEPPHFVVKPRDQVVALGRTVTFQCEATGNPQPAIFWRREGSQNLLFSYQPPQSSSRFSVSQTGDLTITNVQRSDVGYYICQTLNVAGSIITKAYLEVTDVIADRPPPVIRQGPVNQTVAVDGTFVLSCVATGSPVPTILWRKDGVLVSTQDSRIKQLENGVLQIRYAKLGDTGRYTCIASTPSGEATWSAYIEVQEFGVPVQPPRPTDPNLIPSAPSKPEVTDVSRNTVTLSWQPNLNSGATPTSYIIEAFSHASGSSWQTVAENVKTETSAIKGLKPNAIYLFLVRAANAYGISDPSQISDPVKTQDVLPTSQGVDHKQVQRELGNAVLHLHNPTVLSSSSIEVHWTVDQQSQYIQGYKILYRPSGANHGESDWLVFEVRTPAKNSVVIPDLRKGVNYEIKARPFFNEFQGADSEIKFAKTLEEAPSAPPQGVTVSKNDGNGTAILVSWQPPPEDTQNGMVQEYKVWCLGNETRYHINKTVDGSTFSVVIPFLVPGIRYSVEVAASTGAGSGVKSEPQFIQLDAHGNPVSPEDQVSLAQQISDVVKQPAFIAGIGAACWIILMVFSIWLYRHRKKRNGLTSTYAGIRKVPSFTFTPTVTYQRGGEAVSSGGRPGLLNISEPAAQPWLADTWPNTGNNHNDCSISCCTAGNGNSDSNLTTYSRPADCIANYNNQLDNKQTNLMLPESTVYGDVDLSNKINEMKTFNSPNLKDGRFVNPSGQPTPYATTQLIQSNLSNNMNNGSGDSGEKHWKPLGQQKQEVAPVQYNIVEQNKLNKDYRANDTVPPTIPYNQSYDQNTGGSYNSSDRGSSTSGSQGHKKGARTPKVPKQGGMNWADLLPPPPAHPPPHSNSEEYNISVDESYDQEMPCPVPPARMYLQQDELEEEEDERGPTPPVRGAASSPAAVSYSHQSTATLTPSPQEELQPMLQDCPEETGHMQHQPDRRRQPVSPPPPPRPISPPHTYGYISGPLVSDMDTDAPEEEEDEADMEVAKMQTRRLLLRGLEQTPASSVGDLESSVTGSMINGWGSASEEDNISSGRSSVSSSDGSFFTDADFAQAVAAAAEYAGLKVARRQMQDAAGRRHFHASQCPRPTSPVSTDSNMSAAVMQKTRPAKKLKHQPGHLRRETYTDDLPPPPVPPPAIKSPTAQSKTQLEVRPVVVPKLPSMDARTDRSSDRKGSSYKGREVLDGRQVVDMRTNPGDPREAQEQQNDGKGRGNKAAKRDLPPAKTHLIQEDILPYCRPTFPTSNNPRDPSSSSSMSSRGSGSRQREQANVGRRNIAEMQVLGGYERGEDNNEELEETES

B1: Abcs35 (antibody, human IgG1, kappa)
heavy: EVQLVQSGAEVKKPGASVKVSCKASGYTFTGYYMHWVRQAPGQGLEWMGWINPKNGDTEFPQKFQGRVTMTRDTSITTAYMDLSRLRSDDTAVYYCARESGDDAFDIWGQGTMVTVSSASTKGPSVFPLAPSSKSTSGGTAALGCLVKDYFPEPVTVSWNSGALTSGVHTFPAVLQSSGLYSLSSVVTVPSSSLGTQTYICNVNHKPSNTKVDKKVEPKSCDKTHTCPPCPAPEAAGAPSVFLFPPKPKDTLMISRTPEVTCVVVDVSHEDPEVKFNWYVDGVEVHNAKTKPREEQYNSTYRVVSVLTVLHQDWLNGKEYKCKVSNKALPAPIEKTISKAKGQPREPQVYTLPPSREEMTKNQVSLTCLVKGFYPSDIAVEWESNGQPENNYKTTPPVLDSDGSFFLYSKLTVDKSRWQQGNVFSCSVMHEALHNHYTQKSLSLSPGK
light: DIVMTQSPSSLSASVGDRVTITCRASQSISSYLNWYQQKPGKAPKLLIYAASSLQSGVPSRFSGSGSGTDFTLTISSLQPEDFATYYCQQSVGLFFGGGTKVEIKRTVAAPSVFIFPPSDEQLKSGTASVVCLLNNFYPREAKVQWKVDNALQSGNSQESVTEQDSKDSTYSLSSTLTLSKADYEKHKVYACEVTHQGLSSPVTKSFNRGEC
notes: fully human IgG1; VH of Ab96 with VL of Ab123
With B1, the EC50 – broadly, the midpoint of the concentration-response curve – in assay [1] was found to be 77 pM; in assay [2], 111 pM.

B2: Abcs35-J (antibody, human IgG1, kappa)
heavy: EVQLVQSGAEVKKPGASVKVSCKASGYTFTGYYMHWVRQAPGQGLEWMGWINPKNGDTEFPQKFQGRVTMTRDTSITTAYMELSRLRSDDTAVYYCARESGDDAFDIWGQGTMVTVSSASTKGPSVFPLAPSSKSTSGGTAALGCLVKDYFPEPVTVSWNSGALTSGVHTFPAVLQSSGLYSLSSVVTVPSSSLGTQTYICNVNHKPSNTKVDKKVEPKSCDKTHTCPPCPAPEAAGAPSVFLFPPKPKDTLMISRTPEVTCVVVDVSHEDPEVKFNWYVDGVEVHNAKTKPREEQYNSTYRVVSVLTVLHQDWLNGKEYKCKVSNKALPAPIEKTISKAKGQPREPQVYTLPPSREEMTKNQVSLTCLVKGFYPSDIAVEWESNGQPENNYKTTPPVLDSDGSFFLYSKLTVDKSRWQQGNVFSCSVMHEALHNHYTQKSLSLSPGK
light: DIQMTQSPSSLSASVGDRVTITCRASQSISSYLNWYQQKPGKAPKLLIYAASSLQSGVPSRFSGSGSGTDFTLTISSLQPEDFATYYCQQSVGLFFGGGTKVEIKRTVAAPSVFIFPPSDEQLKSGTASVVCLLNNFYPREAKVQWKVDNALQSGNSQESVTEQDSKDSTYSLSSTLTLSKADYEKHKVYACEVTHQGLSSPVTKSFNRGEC
notes: germlined variant of Abcs35; also called ABCS-J
On to B2, for which the EC50 in assay [1] is 79 pM; in assay [2], 99 pM.
